Legend:
mouse α9 integrin = biological target: T1, mouse α9 integrin (mouse, UniProt B8JK39 29-1036); experiment: cell-based or functional assay
T1 chain: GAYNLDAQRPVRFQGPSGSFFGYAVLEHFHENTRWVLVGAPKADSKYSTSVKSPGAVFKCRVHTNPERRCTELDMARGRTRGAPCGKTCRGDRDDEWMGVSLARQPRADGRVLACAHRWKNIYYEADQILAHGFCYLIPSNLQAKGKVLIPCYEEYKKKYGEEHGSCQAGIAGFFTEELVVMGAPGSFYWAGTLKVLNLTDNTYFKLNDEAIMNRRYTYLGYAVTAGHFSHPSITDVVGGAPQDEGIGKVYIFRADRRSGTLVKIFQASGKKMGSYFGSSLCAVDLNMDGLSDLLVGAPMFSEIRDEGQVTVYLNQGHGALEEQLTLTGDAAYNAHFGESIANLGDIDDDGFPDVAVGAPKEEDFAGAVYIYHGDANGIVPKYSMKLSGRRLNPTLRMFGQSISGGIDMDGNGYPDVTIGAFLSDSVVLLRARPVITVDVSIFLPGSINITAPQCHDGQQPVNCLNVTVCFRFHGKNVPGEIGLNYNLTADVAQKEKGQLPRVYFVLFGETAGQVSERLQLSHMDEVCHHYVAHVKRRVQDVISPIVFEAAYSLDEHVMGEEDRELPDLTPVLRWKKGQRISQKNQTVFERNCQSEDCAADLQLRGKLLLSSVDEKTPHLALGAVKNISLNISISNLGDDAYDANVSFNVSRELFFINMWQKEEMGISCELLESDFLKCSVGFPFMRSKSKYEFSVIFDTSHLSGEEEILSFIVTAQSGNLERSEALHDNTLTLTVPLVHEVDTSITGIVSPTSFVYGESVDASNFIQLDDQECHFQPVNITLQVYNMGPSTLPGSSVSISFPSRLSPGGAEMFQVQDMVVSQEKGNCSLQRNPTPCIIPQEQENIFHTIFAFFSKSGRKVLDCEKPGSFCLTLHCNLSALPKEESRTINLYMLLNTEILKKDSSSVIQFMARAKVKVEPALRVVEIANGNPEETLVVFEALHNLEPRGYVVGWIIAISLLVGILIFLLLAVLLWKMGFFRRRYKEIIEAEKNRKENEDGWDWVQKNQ

hα9/mL1-EGFP = biological target: T2, hα9/mL1-EGFP (human, UniProt Q13797 30-1035); experiment: Cell ELISA on transiently expressing CHO cells
T2 construct: an offset must be applied; also called L1 loop region variant of human α9-EGFP; not shown: EGFP from pEGFP-N1 vector (Clontech) fused to the C-terminal (cytoplasmic region)
T2 chain: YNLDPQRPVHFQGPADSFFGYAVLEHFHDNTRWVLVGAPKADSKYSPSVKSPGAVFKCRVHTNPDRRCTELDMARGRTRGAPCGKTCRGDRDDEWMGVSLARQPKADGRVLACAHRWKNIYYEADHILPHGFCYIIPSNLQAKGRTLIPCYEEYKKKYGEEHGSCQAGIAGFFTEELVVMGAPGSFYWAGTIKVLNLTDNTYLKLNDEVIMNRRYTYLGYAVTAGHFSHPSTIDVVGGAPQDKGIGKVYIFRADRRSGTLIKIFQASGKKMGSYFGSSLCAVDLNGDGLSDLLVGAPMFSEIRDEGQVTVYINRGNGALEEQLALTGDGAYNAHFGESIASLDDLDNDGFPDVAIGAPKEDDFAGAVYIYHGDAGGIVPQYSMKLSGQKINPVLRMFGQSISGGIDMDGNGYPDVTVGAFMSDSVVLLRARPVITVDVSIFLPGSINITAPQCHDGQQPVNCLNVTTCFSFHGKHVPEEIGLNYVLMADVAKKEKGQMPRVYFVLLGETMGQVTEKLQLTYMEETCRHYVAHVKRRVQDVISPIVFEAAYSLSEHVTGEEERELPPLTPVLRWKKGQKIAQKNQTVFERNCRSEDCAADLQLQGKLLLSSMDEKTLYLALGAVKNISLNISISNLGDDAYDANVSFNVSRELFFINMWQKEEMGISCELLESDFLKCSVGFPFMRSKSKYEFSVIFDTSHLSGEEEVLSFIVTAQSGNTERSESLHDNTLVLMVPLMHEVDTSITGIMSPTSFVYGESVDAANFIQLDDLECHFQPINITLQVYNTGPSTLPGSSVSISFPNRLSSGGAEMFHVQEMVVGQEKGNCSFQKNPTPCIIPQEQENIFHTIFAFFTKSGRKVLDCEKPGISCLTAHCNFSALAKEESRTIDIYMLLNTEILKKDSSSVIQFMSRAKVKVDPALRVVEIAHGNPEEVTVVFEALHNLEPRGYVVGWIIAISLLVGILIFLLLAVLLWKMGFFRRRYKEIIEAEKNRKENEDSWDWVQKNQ
Description: CHO/mα9 and CHO were seeded on a 96 well plate (costar) at 2×10⁴ cells/100 μL/well, and incubated overnight at 37° C., 5% CO₂. The medium was suctioned, and the cells were washed with PBS, and reacted with phage antibody diluted with 1% BSA/PBS. The detection was performed by using horse-radish peroxidase (HRP)-labeled anti-M13 antibody (Amersham) and TMB (SIGMA) in combination. The absorbance at wavelengths 450 nm and 650 nm was measured by a microplate reader (Molecular Devices).
SW480/mα9, SW480/hα9 and SW480 were used as antigens, 1% BSA/PBS containing 5% FBS was used as a dilution solution, an HRP-labeled anti-mouse IgG antibody (ZYMED) was used for detection, and the rest was performed under the same conditions as in Example 4.
Next, analysis by Cell ELISA was performed. Various cells after about 24 hr from gene transfection were collected, and seeded on a 96 well plate at 2×10⁴ cells/100 μL/well. The rest was performed under the same conditions as in Example 11.

IC50 of inhibition of α9-dependent cell adhesion (mouse α9 integrin): 0.34 µg/mL
binding result (hα9/mL1-EGFP): binds
B1: MA9-413 scFv-Fc (Fc fusion)
scFv: EVQLVESGGGVVRPGGSLRLSCAASGFAFGDYGMSWVRQAPGKGLEWVSGINWNGGSTGYADSVKGRFTTSRDNAKNSLYLQMNSLRAEDTALYYCARDENYDILTGYYYYGMDVWGQGTTVTVSSGGGGSGGGGSGGGGSQSVVTQPPSVSAAPGQKVTISCSGSSSNIGNNYVSWYQQLPGTAPKLLIYDNNKRPSGIPDRFSASKSGTSATLGITGLQTGDEADYYCGTWDSSLTVWAFGGGTKLTVLG
notes: Divalent scFv-Fc with mouse IgG1 Fc, expressed in CHO-DG44; also called ANM-2; not shown: Fc region of mouse IgG1 and its junction to the scFv

Reference: US20110014213A1 (JURIDICAL FDN THE CHEMO SERO THERAP RES INS, published 2011)
